From patent publication US20160251440A1 (Ablynx, published 2016)
Substitutions are numbered along the chain they refer to.

Columns and labels:
[1] = target: T1, human IL12Rβ1, cell-expressed (human, UniProt P42701 24-662); assay: cell-based or functional assay
[2] = target: T1, human IL12Rβ1, cell-expressed; assay: cell-based or functional assay; remark: listed apart in the source
[3] = target: T2, human IL12Rβ1 extracellular domain Fc-fusion (human, UniProt P42701 24-545); assay: SPR Biacore T100, captured IL12Rβ1-Fc
T2 construct: extracellular domain; bought; also called IL12Rβ1-Fc; hIL-12Rβ1-Fc; not shown: Fc part, captured by anti-hIgG

[4] = target: T2, human IL12Rβ1 extracellular domain …; assay: competition ELISA, coated IL-12 + IL12Rβ1-Fc
[5] = target: T2, human IL12Rβ1 extracellular domain …; assay: competition ELISA, coated IL-23 + IL12Rβ1-Fc
[6] = target: T2, human IL12Rβ1 extracellular domain …; assay: competition ELISA, coated IL-12 + 2 nM IL12Rβ1-Fc
[7] = target: T2, human IL12Rβ1 extracellular domain …; assay: competition ELISA, coated IL-23 + 2 nM IL12Rβ1-Fc
[8] = target: T3, human CD4, cell-expressed (human, UniProt P01730 26-458); assay: flow cytometry on MOLM-13 cells (CD4, no IL12R or IL23R), lower left panel
T3 construct: whole, on cells

[9] = target: T4, human IL12Rβ2, cell-expressed (human, UniProt Q99665 24-862); assay: cell-based or functional assay
T4 sequence (looked up): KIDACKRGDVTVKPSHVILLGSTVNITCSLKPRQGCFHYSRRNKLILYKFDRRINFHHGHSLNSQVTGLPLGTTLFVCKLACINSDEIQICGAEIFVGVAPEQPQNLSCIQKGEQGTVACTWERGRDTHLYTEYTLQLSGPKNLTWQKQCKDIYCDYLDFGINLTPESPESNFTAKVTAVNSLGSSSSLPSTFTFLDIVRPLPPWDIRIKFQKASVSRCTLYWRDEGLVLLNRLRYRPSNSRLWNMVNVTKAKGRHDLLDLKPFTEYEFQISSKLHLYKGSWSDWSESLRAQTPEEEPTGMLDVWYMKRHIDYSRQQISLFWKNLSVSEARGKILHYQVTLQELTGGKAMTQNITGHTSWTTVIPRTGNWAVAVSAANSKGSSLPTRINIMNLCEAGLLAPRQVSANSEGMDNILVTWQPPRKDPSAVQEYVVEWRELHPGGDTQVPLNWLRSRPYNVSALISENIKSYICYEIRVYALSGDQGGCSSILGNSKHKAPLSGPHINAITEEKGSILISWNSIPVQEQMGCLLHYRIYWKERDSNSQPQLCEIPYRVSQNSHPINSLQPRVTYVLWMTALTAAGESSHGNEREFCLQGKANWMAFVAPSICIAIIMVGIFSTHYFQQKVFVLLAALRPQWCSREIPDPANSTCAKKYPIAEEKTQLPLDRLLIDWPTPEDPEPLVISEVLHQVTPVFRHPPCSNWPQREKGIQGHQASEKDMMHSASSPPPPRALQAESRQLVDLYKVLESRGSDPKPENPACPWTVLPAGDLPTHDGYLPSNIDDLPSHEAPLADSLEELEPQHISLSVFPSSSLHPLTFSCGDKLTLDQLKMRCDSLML

[10] = target: T4, human IL12Rβ2, cell-expressed; assay: FACS, activated human T cells
[11] = target: T5, human IL12Rβ2 extracellular domain Fc-fusion (human, UniProt Q99665 24-622); assay: SPR Biacore T100, captured IL12Rβ2-Fc
T5 construct: extracellular domain; bought; also called IL12Rβ2-Fc; hIL-12Rβ2-Fc
T5 sequence (looked up): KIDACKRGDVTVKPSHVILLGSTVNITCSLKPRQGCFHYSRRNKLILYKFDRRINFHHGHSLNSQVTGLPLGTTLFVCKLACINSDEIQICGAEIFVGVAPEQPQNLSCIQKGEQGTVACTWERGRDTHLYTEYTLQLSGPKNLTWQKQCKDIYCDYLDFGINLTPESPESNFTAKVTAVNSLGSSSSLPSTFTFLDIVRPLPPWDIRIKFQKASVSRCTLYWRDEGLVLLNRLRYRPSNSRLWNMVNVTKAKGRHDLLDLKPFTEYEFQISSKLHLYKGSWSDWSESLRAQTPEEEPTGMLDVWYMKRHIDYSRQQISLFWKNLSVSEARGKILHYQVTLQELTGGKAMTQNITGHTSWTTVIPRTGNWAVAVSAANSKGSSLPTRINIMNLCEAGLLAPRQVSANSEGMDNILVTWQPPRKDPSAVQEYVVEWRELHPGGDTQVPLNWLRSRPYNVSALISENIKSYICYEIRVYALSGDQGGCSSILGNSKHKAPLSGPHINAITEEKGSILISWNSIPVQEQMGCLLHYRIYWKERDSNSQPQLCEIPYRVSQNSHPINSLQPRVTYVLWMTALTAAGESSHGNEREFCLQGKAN

[12] = target: T5, human IL12Rβ2 extracellular domain …; assay: competition ELISA, coated IL-12 + IL12Rβ2-Fc
[13] = target: T5, human IL12Rβ2 extracellular domain …; assay: competition ELISA, coated IL-12 + 3 nM IL12Rβ2-Fc
[14] = target: T3, human CD4, cell-expressed; assay: flow cytometry on MOLM-13 cells (CD4, no IL12R or IL23R), upper left panel
[15] = target: T1, human IL12Rβ1, cell-expressed; assay: flow cytometry on isolated CD8+ T cells of donor D863, anti-Flag detection
[16] = target: T6, human CXCR4 (on cells, viral lipoparticles or membrane extracts) (human, UniProt P61073 1-352); assay: FACS, Jurkat cells
T6 construct: whole, on cells; also called hCXCR4 VLPs; CXCR4-lip

[17] = target: T6, human CXCR4 (on cells, viral …); assay: FACS, Caki-CXCR4 cells
[18] = target: T6, human CXCR4 (on cells, viral …); assay: cell-based or functional assay
[19] = target: T6, human CXCR4 (on cells, viral …); assay: cell-based or functional assay; remark: listed apart in the source
[20] = target: T6, human CXCR4 (on cells, viral …); assay: ELISA, CXCR4 viral lipoparticles
[21] = target: T6, human CXCR4 (on cells, viral …); assay: FACS displacement of 30 nM biotin-SDF-1, Caki-CXCR4 cells
[22] = target: T7, recombinant IL-3Rα ectodomain (human, UniProt P26951 19-305); assay: ELISA on recombinant IL-3Ra ectodomain (both lower panels)
T7 construct: extracellular domain; also called recombinant IL-3Ra; biotinylated-IL-3Rα ectodomain
T7 sequence (looked up): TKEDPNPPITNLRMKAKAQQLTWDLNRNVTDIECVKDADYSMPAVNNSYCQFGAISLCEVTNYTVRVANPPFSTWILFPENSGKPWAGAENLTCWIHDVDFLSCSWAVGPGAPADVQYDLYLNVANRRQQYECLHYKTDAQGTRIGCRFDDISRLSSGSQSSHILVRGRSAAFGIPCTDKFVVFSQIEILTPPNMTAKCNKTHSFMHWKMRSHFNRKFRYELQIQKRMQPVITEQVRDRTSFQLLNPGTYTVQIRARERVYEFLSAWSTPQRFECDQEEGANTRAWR

[23] = target: T8, CXCR4 and IL-3Rα (CD123) co-expressed on MOLM-13 / THP-1 cells (human, UniProt P61073 1-352; P26951 19-378); assay: flow cytometry on MOLM-13 cells (IL-3Ra higher than CXCR4)
T8 construct: whole, on cells; two separate membrane proteins on one cell, not a complex; target of bispecifics on double-positive cells; also called CXCR4+/CD123+ cells

[24] = target: T7, recombinant IL-3Rα ectodomain; assay: ELISA on recombinant IL-3Ra ectodomain (panel 'IL-3Ra ELISA', lower left)

T6 sequence (P61073 whole entry): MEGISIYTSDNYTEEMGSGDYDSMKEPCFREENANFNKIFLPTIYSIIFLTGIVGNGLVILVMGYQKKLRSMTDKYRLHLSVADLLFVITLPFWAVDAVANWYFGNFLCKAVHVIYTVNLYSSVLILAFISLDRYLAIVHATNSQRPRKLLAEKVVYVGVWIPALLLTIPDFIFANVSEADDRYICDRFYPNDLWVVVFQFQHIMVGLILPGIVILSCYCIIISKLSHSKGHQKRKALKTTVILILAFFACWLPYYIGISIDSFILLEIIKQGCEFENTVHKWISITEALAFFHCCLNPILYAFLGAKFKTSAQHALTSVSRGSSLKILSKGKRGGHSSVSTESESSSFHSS
T8 sequence (P61073 whole entry, one chain of several): as the sequence (P61073 whole entry) above

B1: IL12Rb1#31: 148F09 (VHH)
VHH: EVQLVESGGGLVQTGGSLRLSCAASGRTPSIIAMGWFRQTPGKEREFVGEIILSKGFTYYADSVKGRFTISRANAKNTITMYLQMNSLKSEDTAVYYCAARQNWSGNPTRTNEYEYWGQGTLVTVSS
notes: also called IL12Rβ1#31; LG148F09
Question: What does the source list for B1?
Answer: IC50, IFNγ release, PBMC D840 [1]: 93.5 nM; IC50, IL-17 release, PBMC D840 [2]: 210 nM; Kd [3]: 23 nM; koff [3]: 0.017 s⁻¹; kon [3]: 720000 M⁻¹ s⁻¹; IC50 [4]: 22 nM; IC50 [5]: 10 nM; IC50 [6]: 22 nM; IC50 [7]: 10 nM; binding result [8]: no binding (tested: 1E-6 M)

B2: IL12Rb2#1: 135B08 (VHH)
VHH: EVQLVESGGRLVQAGDSLRLSCAASGRTFISYRMGWFRQAPGKEREFVAALRWSSSNIDYTYYADSVKGRFSISGDYAKNTVYLQMNSLKAEDTAVYYCAASTRWGVMESDTEYTSWGQGTLVTVSS
notes: also called IL12Rβ2#1; LG135B08
Question: Which “IC50, IFNγ release, PBMC D840” value [9] does the source give for B2 here?
Answer: The value was 13.5 nM.

Question: What about the “IC50, IFNγ release, T cells D839” value [9] of the same binder?
Answer: Its value is 51 nM.

Question: What about the EC50 [10] of the same binder?
Answer: Its EC50 is 1.5 nM.

Question: What about the Kd [11] of the same binder?
Answer: Its Kd is 2.7 nM.

Question: And the koff [11]?
Answer: Its koff is 0.00057 s⁻¹.

Question: And the kon [11]?
Answer: The kon was 210000 M⁻¹ s⁻¹.

Question: What about the IC50 [12] of the same binder?
Answer: Its IC50 is 4.2 nM.

Question: And the IC50 [13]?
Answer: The IC50 was 4.2 nM.

Question: Does B2 bind [14]?
Answer: Result: no binding (tested: 1E-6 M)

Question: Does B2 bind [15]?
Answer: Result: no binding (tested: 250 nM)

B3: IL12Rb2#2: 135A07 (VHH)
VHH: B2 VHH with I30T, A49S, S56G
notes: also called IL12Rβ2#2; LG135A07
Question: With B3 as the binder, how does the “IC50, IFNγ release, PBMC D840” value [9] read?
Answer: The value was 40 nM.

Question: What about the “IC50, IFNγ release, T cells D839” value [9] of the same binder?
Answer: The value was 67 nM.

Question: What about the EC50 [10] of the same binder?
Answer: Its EC50 is 1.8 nM.

Question: What about the Kd [11] of the same binder?
Answer: Its Kd is 6.9 nM.

Question: What about the koff [11] of the same binder?
Answer: Its koff is 0.0018 s⁻¹.

Question: What about the kon [11] of the same binder?
Answer: The kon was 270000 M⁻¹ s⁻¹.

Question: What about the IC50 [12] of the same binder?
Answer: The IC50 was 15 nM.

Question: And the IC50 [13]?
Answer: Its IC50 is 15 nM.

Question: Does B3 bind [14]?
Answer: Result: no binding (tested: 1E-6 M)

B4: 14D09 (VHH)
VHH: EVQLVESGGGLVQAGGSLRLSCVASGISSSKRNMGWYRQAPGKQRESVATISSGGNKDYTDAVKDRFTISRDTTKNTVYLQMNSLKPEDTAVYYCKIEAGTGWATRRGYTYWGQGTLVTVSS
notes: also called CXCR4#1; 14D9
Question: How did the EC50 [16] turn out when B4 was run?
Answer: Its EC50 is 11 nM.

Question: And the EC50 [17]?
Answer: The EC50 was 9.9 nM.

Question: What about the “IC50, SDF-1 chemotaxis, Jurkat” value [18] of the same binder?
Answer: The value was 11 nM.

Question: What about the “IC50, CXCL-12 chemotaxis, Jurkat E6-1” value [19] of the same binder?
Answer: Its value is 10.4 nM.

Question: And the “IC50, CXCL-12 chemotaxis, MOLM-13” value [19]?
Answer: Its value is 8.62 nM.

Question: What about the EC50 [20] of the same binder?
Answer: Its EC50 is 7.28 nM.

Question: And the IC50 [21]?
Answer: The IC50 was 18.4 nM.

Question: Does B4 bind [22]?
Answer: Result: no binding (tested: 1E-6 M)

B5: 14A02 (VHH)
VHH: B4 VHH with K31I, N83S, L117Q
Question: What does the source list for B5?
Answer: EC50 [16]: 1.15 nM; EC50 [17]: 4 nM; IC50, SDF-1 chemotaxis, Jurkat [18]: 0.95 nM; EC50 [20]: 0.73 nM; IC50 [21]: 4.1 nM

B6: 14E02 (VHH)
VHH: B4 VHH with K31I, L117Q
notes: also called 14E2
Question: What does the source list for B6?
Answer: EC50 [17]: 2.6 nM; EC50 [20]: 0.78 nM; IC50 [21]: 13.5 nM

B7: 55A01-35GS-281F12 (bispecific antibody)
chain: EVQLVESGGGSVQAGGSLRLSCTTSGRALNMYVMGWFRQAPGNEREFVAATSSSGGSTSYPDSVKGRFTISRDNAKNTVYLQMNSLKPEDTAAYRCAASPYVSTPTMNILEEYRYWGQGTLVTVSSGGGGSGGGGSGGGGSGGGGSGGGGSGGGGSGGGGSEVQLVESGGGLVQAGDSLRLSCAASGRAFSRYAMGWFRQAPGKEREFVAAIGWGPSKTNYADSVKGRFTISRDNAKNTVYLQMNTLKPEDTAVYSCAAKFVNTDSTWSRSEMYTYWGQGTLVTVSS
notes: also called CD123#2-CXCR4#2; 55A01-281F12
Question: What does the source list for B7?
Answer: EC50 (read off the curve) [23]: ~10 nM; EC50 (read off the curve) [24]: ~1 nM
